In US20140336127A1, “Stabilized Peptide Helices For Inhibiting Dimerization Of Chemokine C Motif Receptor 2 (CCR2)” (Yissum Research Development Company of the Hebrew …, priority 2012, published 2014):
Starred links: 1 amine or outer side, 2 acyl side, 3 side chain; linkers in the order of their positions; H or OH if unused. Positions of bridges follow the written chain, without caps; N, C: chain ends. Non-standard residues stand in square brackets, D forms with d. Residues, ends and D or L forms follow the SMILES beside them. No end group written: not given here. BU = not defined here; CO = O=C([*:1])[*:2]

Legend:
intestinal peptidases = test: metabolic stability BBMV assay (degradation by intestinal peptidases); format: in vitro ADME, rat; settings: 37° C.
Description: The enzymatic reaction is performed similar to what described in Ovadia et al. (2009, Bioorg Med Chem 18, 580-589): 2 mM stock solutions of the tested compounds are diluted with serum or purified brush border membrane vesicles (BBMVs) solution to a final concentration of 0.5 mM. During incubation at 37° C. samples are taken for a period of 90 minutes. The enzymatic reaction is stopped by adding 1:1 v/v of ice cold acetonitrile and centrifuge (4000 g, 10 min) before analysis.
The BBMVs are prepared from combined duodenum, jejunum, and upper ileum (male Wistar rats) by a Ca++ precipitation method (Gante, J., Angew Chem Int Edit 1994, 33, (17), 1699-1720; Hess et al., ibid). Purification of the BBMVs is assayed using GGT, LAP and alkaline phosphatase as membrane enzyme markers.
M3D-1 was tested for metabolic stability to degradation by intestinal peptidases using the BBMV assay described above. The linear CCR2b(61-67) peptide was used as a control.

THP-1 cells = test: spontaneous migration of THP-1 cells without additional chemokines; format: cell-based, human; settings: FIG. 7 dots
Description: THP-1 cells spontaneous migration was evaluated without additional chemokines.

CXCR4 = molecular target: T1, CXCR4 (Homo sapiens, UniProt P61073); test: transwell migration assay, SDF-1 (CXCL12) induced migration; format: cell-based; settings: cells migrating towards SDF-1; FIG. 7 crosshatch
T1 construct: endogenous in cells; host or cells: THP-1 (inferred; b171 says only 'cells')
T1 sequence (P61073 whole entry): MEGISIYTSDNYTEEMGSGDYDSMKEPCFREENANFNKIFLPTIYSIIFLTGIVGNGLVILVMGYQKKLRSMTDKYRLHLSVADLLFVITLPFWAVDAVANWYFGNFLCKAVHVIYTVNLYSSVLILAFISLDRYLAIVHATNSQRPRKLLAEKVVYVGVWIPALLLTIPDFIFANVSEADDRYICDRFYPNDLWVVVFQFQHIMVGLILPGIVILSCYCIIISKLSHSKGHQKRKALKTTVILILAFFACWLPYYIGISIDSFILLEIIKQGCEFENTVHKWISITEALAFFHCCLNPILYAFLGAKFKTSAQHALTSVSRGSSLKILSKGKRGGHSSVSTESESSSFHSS
Text: (§1) The simple transwell migration assay (Mandelboim, O. Protocol Exchange (2006) doi:10.1038/nprot.2006.210) was used for evaluating the chemotactic migration in the presence of M3D-1. M3D-1 inhibited THP-1 cells migration towards MCP-1 (FIG. 7 stripes).
SDF-1 is known to have strong chemotactic effects following specific interaction with the receptor CXCR4 (Bleul et al., ibid).

cells = test: in vitro cytotoxicity assay; format: cell-based
CCR2 = molecular target: T2, CCR2 (Homo sapiens, UniProt P41597); test: transwell migration assay with MCP-1 as chemoattractant (THP-1 cells); format: cell-based
T2 construct: endogenous in cells; host or cells: THP-1
T2 sequence (P41597 1-360 isoform P41597-2): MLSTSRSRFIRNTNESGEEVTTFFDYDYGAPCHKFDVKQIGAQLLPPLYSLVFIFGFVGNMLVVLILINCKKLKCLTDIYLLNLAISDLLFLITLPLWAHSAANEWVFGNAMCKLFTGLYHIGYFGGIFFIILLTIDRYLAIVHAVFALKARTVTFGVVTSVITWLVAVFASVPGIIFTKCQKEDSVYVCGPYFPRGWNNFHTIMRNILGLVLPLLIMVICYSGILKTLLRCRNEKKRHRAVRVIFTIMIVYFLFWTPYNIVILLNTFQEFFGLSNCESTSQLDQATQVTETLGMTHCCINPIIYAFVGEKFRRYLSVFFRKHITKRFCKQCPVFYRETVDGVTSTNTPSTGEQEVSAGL
Description: A transwell migration assay (Bignold, L. P., J Immunol Methods 1987, 105, (2), 275-80) was performed using MCP-1 as a chemoattractant. The chemokine MCP-1 reacts only with the chemokine receptors CCR2 and CCR4. […] In this experiment, THP-1 cells were placed in the upper well of the trans-migration plate and specific migration was induced by placing MCP-1 in the lower well. The cells were allowed to migrate spontaneously or toward the chemokine, and counted after migration. To evaluate the effect of hCCR2b(61-67) on MCP-1-induced migration, the peptide (10 μM) was incubated with the cells and the number of migrating cells in the lower wells were determined.
as §1

| Compound | degradation by intestinal peptidases (intestinal peptidases; FIG. 9, linear control peptide) | time stable to degradation by intestinal peptidases (intestinal peptidases; FIG. 9) | number of cells that migrate in the absence of chemokine, with or without peptide (THP-1 cells) | inhibition of SDF-1 induced migration (CXCR4) | toxicity to cells (cells) | inhibition of MCP-1-mediated migration (CCR2; THP-1 cells migrating towards MCP-1, concentration not given, FIG. 2 / FIG. 7) | concentration range blocking specific CCR2 chemokine mediated cell migration (CCR2; summary statement in the description) |
| --- | --- | --- | --- | --- | --- | --- | --- |
| CC[C@H](C)[C@H](NC(=O)[C@H](CC(C)C)NC(=O)[C@@H](NC(=O)[C@@H](NC(=O)[C@H](CC(C)C)NC(=O)[C@@H](N)CCSC)C(C)C)C(C)C)C(=O)N[C@@H](CC(C)C)C(=O)O [hCCR2b(61-67), MLVVLIL] (H-MLVVLIL-OH; N-terminus and C-terminus assumed) | completed degraded after about one hour | – | – | – | – | – | – |
| M-L-V-BU-L-I-BU-NH2 (MLV[BU]LI[BU]-NH2; bridge 4-7 via CO; reading uncertain; also: printed as M-L-V-BU-L-I-BU-NH2) [M3D-1] | – | at least 3 hours | no significant difference | no significant inhibition | not toxic to cells | inhibited | low micro-molar range |
